# Experimental data as given in patent publication US20060234906A1, “Structure of a complex of retinoblastoma protein bound to e2f, and uses thereof” (priority 2002, published 2006).
# Residues, ends and D or L forms follow the SMILES beside them. *: point of attachment. 5FAM = O=C1OC2(c3ccc(O)cc3Oc3cc(O)ccc32)c2ccc(C(=O)*)cc21
# Key:
# RbAB = target: T1, RbAB (Homo sapiens, UniProt P06400); assay: RbAB
# T1 construct: residues 372 to 589 of the A domain and 636 to 787 of the B domain; GST (with Prescission protease site) (N, cleaved yes); engineered thrombin site (LVPRGS) at the A-domain end of the A-B linker (C, cleaved yes); engineered thrombin site (LVPRGS) at the B-domain end of the A-B linker (N, cleaved yes); made in house; host or cells: E. coli
# T1 sequence (P06400 whole entry, looked up): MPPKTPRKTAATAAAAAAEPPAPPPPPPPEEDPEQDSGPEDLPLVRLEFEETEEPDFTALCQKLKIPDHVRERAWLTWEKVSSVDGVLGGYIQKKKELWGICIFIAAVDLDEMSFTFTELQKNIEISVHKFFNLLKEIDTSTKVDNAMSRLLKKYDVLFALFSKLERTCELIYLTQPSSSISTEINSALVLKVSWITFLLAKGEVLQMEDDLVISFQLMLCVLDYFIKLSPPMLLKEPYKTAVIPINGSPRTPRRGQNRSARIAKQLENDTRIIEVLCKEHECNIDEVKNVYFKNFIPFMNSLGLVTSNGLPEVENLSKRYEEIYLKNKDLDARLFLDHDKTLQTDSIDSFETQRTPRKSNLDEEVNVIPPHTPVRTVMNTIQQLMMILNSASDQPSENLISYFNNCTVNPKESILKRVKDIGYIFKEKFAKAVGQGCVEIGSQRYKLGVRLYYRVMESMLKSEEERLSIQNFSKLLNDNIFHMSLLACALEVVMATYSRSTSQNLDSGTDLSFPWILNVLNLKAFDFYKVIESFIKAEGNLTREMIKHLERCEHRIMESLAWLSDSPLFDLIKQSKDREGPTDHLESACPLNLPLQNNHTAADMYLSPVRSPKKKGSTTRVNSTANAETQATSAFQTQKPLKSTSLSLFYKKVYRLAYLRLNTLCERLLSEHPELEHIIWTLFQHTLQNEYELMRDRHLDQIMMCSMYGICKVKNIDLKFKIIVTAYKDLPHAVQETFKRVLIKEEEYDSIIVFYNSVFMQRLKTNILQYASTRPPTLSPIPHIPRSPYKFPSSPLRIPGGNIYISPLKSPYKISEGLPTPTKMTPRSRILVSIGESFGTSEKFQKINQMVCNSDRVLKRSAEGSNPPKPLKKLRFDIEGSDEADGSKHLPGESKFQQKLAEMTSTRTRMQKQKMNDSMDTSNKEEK
# Text: (§1) Table printed on a drawing sheet, FIG. 2B
# (§2) The patent's description of the figure: FIG. 2.
# (§3) First copying reader's note: Binding constants of E2F fragments to the Rb constructs RbAB and RbABC; the error is printed in the same cell as the value.
# Where the first naming reader finds the target: head: RbAB
# RbABC = target: T2, RbABC (Homo sapiens, UniProt P06400); assay: RbABC
# T2 construct: His6-RbABC (RESIDUES 380-929); made in house; host or cells: E. coli
# T2 sequence (P06400 whole entry, looked up): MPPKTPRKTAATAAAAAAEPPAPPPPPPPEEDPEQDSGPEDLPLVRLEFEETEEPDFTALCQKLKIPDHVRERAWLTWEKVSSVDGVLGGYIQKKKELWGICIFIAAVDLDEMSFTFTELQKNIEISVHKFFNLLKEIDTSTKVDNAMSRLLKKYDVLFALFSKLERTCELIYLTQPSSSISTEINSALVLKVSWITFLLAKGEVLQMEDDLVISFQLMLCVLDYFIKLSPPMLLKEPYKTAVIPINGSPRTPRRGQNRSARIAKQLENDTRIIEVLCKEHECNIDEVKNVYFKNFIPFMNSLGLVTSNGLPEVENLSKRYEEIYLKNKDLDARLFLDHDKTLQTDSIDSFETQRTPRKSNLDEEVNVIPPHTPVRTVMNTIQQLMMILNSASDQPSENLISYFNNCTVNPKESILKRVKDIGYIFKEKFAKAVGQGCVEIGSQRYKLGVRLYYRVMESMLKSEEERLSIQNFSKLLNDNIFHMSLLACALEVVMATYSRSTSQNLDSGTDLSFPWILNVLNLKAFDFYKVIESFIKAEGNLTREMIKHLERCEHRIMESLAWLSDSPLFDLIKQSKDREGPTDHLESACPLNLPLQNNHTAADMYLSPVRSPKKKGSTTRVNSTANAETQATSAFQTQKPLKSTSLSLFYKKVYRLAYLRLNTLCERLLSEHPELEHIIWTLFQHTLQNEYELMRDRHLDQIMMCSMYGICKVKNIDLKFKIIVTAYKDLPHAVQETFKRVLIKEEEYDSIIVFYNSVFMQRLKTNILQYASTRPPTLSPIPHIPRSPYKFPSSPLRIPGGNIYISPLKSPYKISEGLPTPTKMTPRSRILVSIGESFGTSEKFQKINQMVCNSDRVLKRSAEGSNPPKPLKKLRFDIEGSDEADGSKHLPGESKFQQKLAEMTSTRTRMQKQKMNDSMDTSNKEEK
# Text: as §1, §2, §3
# Where the first naming reader finds the target: head: RbABC
# pRb = target: T3, pRb (Homo sapiens, UniProt P06400); assay: Fluorescence polarization titration binding of fluoro-labelled peptides with pRb; details: pRb titration with fluoro-labelled peptide, one site binding model; read-out: Kd
# T3 sequence (P06400 373-771 limits assumed): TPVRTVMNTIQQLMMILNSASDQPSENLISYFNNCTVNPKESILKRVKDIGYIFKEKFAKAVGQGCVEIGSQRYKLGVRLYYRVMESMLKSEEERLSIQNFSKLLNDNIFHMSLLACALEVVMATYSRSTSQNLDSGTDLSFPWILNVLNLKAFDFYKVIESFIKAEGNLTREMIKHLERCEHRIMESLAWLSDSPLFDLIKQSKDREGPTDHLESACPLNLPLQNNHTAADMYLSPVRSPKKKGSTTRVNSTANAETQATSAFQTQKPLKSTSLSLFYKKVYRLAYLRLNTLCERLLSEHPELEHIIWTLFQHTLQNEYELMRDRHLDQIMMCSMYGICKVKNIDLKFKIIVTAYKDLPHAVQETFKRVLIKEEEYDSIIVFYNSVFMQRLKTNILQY
# Text: Synthetic peptides were synthesised and fluoro-tagged using either N-terminal labelling with 5 carboxyfluorescein succinimidyl ester or cysteine labelling with single isomer tetramethylrhodamine-5-maleimide. […] Fluorescein fluorescence measured at λexcite=485 and λemit=520 nm
# Rhodamine fluorescence measured at λexcite=545 and λemit=580 nm
# Measurements were made using BMG Fluorostar plate reader fitted with polarization optic. […] Data were fitted to a one site binding model using Graphpad prism.
# pRb titration curves were performed in 96-well black plates, in a total reaction volume of 100 μL. Doubling dilutions from 10 μM stock of pRb were made in binding buffer (50 mM Tris HCl, pH7.0, 100 mM NaCl, 10 mM DTT, 0.05% NP-40) and 80 μL added in triplicate to wells. 20 μL of 2 μM fluoro-peptide was added and pipetted up and down to mix. The plate was read after 1 hr incubation at room temperature.
# pRb/Fl-E7 = target: T4, pRb/Fl-E7 (Homo sapiens, UniProt P06400); assay: Fluorescence polarization displacement binding, Fl-E7 bound to pRb; details: fluoro-tagged peptide 400 nM pre-incubated with pRb 1 μM
# T4 sequence (P06400 373-771 limits assumed): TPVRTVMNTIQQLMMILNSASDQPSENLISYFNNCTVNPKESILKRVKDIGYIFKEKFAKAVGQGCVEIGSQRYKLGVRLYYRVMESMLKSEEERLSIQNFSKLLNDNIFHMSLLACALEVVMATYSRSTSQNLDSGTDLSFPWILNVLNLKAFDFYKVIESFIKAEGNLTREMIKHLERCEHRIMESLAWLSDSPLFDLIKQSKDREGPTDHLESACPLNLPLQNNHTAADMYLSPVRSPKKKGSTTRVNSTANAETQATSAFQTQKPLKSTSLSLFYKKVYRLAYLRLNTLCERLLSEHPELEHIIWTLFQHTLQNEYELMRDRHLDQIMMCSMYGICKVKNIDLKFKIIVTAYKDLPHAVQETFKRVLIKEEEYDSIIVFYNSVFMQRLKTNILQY
# Description: Fluoro-tagged peptide (400 nM) was pre-incubated with pRb (1 μM ) and unlabelled peptide added at the concentrations shown. Displacement binding curves were plotted (FIG. 4a), and were fitted to a one site competition binding model using Graphpad prism curve fitting software.
Kd (RbAB),Kd (RbABC),Kd (pRb),displacement of Fl-E7 from pRb (pRb/Fl-E7),Molecule
160 ± 10 nM,100 ± 10 nM,–,–,"E2F(380-437): Synthetic peptide of E2F residues 380-437 (ADSLLEHVREDFSGLLPEEFISLSPPHEALDYHFGLEEGEGIRDLFDCDFGDLTPLDF; UniProt Q01094 380-437, looked up, fragment)"
–,–,450 ± 70 nM,does not displace E7,"CC[C@H](C)[C@H](NC(=O)CNC(=O)[C@H](CCC(=O)O)NC(=O)CNC(=O)[C@H](CCC(=O)O)NC(=O)[C@H](CCC(=O)O)NC(=O)[C@H](CC(C)C)NC(=O)CNC(=O)[C@H](Cc1ccccc1)NC(=O)[C@H](Cc1c[nH]cn1)NC(=O)[C@H](Cc1ccc(O)cc1)NC(=O)[C@H](CC(=O)O)NC(=O)[C@H](CC(C)C)NC(=O)c1ccc2c(c1)C(=O)OC21c2ccc(O)cc2Oc2cc(O)ccc21)C(=O)N[C@@H](CCCNC(=N)N)C(=O)N[C@@H](CC(=O)O)C(=O)N[C@@H](CC(C)C)C(=O)N[C@@H](Cc1ccccc1)C(=O)N[C@@H](CC(=O)O)C(=O)O [Fluorescein-E2F, N-terminal amide link-age 5 carboxyfluorescein-E2F409-426, 18′mer] (5FAM-LDYHFGLEEGEGIRDLFD-OH; C-terminus assumed)"
